T1: EFR-YFPc / EFR-YFPn (Arabidopsis thaliana, UniProt C0LGT6 25-1031)
T1 construct: Two BiFC constructs used in both combinations, expressed in N. benthamiana leaves; not shown: split-YFP half (YFPc or YFPn) from the BiFC vector
T1 sequence (looked up): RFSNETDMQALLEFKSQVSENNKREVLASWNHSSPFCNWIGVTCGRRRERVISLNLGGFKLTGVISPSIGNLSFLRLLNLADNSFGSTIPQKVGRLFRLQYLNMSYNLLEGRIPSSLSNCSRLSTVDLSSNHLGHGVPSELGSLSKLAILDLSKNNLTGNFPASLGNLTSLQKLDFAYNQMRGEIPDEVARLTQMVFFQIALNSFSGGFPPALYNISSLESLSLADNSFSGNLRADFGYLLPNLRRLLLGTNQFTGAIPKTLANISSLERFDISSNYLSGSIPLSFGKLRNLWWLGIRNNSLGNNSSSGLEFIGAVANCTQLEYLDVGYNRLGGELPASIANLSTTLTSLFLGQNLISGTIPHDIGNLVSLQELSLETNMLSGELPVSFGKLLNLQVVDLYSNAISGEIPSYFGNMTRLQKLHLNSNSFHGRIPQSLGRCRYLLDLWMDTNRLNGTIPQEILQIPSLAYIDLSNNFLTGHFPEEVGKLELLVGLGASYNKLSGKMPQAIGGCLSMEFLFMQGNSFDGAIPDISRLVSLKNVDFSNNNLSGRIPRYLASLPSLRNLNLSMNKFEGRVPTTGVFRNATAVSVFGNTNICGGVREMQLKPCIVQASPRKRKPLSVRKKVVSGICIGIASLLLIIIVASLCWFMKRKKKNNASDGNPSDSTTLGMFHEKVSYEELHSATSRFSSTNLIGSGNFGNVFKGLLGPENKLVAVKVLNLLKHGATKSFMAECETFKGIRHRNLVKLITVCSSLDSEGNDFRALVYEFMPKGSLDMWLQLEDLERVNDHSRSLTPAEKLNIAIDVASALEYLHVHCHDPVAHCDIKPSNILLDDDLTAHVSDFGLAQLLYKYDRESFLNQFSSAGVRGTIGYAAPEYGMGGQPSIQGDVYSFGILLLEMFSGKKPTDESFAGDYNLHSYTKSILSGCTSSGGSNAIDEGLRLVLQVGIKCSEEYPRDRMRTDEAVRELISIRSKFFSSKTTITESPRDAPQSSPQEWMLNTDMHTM

T2: BAK1-HA (Arabidopsis thaliana, UniProt Q94F62 26-615)
T2 construct: Transiently expressed in N. benthamiana; also called LRR-RK BAK1; 35S::BAK1-HA; not shown: HA tag
T2 sequence (looked up): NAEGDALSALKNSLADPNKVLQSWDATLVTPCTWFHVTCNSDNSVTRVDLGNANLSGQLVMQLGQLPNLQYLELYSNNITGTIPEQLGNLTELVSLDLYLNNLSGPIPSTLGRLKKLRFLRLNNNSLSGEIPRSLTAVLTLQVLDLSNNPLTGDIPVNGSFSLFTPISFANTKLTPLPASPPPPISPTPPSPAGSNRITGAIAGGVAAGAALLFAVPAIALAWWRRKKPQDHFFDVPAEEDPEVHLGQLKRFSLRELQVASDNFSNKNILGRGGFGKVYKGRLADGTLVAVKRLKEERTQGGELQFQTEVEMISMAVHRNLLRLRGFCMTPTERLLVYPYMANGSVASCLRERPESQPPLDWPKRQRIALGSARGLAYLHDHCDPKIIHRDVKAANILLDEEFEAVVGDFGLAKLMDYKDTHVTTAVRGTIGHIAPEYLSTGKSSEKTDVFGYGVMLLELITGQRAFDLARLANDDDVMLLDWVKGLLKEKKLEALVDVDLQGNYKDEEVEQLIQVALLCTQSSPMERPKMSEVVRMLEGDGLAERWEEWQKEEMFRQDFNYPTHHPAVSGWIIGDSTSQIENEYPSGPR


How the values were obtained:
EFR-YFPc / EFR-YFPn = target: T1, EFR-YFPc / EFR-YFPn; test: bimolecular fluorescence complementation in N. benthamiana (panel B)
Procedure: Interaction assays were performed in presence or absence of the auxotrophic amino acid leucine (Leu). […] Scale bar corresponds to 20 μm. Photographs were taken 2 days after infiltration and are representative of the total observations (n=60). All results shown are representative of three independent experiments.

FLS2-YFPc / FLS2-YFPn = target: T3, FLS2-YFPc / FLS2-YFPn (Arabidopsis thaliana, UniProt Q9FL28 24-1173); test: bimolecular fluorescence complementation in N. benthamiana, with plasmolysis (panel E)
T3 construct: Two BiFC constructs used in both combinations, expressed in N. benthamiana leaves; not shown: split-YFP half (YFPc or YFPn) from the BiFC vector

BAK1-HA = target: T2, BAK1-HA; test: co-immunoprecipitation with GFP Trap beads after transient co-expression in N. benthamiana
Procedure: Total proteins (input) were subjected to immunoprecipitation with GFP Trap beads followed by immunoblot analysis. […] Total proteins (input) were subjected to immunoprecipitation with GFP Trap beads followed by immunoblot analysis. […] All results shown are representative of three independent experiments.
Total proteins were extracted in a buffer including 100 mM Tris-HCl pH 7.5, 150 mM NaCl, 5 mM EDTA, 5% glycerol, 10 mM DTT, 0.5% Triton X-100, 1% Igepal and protease inhibitors (Sigma). For co-immunoprecipitation, anti-HA beads (Roche) or anti-GFP-TRAP-A beads (Chromotek) were incubated with total proteins and then washed with the extraction buffer. Proteins were fractioned on SDS-PAGE, transferred onto PVDF membranes (Bio-Rad) and then detected using specific antibodies. […] Epitope-tagged proteins were detected with a peroxidase-conjugated anti-HA-HRP (Santa Cruz); mouse monoclonal anti-GFP antibodies (AMS); or anti-HRP antibodies (Santa Cruz). The secondary anti-rabbit-HRP antibodies (Sigma) were used when appropriate. Immunodetection was performed with ECL chemiluminescence reagent (GE).

T3 sequence (Q9FL28 24-1173): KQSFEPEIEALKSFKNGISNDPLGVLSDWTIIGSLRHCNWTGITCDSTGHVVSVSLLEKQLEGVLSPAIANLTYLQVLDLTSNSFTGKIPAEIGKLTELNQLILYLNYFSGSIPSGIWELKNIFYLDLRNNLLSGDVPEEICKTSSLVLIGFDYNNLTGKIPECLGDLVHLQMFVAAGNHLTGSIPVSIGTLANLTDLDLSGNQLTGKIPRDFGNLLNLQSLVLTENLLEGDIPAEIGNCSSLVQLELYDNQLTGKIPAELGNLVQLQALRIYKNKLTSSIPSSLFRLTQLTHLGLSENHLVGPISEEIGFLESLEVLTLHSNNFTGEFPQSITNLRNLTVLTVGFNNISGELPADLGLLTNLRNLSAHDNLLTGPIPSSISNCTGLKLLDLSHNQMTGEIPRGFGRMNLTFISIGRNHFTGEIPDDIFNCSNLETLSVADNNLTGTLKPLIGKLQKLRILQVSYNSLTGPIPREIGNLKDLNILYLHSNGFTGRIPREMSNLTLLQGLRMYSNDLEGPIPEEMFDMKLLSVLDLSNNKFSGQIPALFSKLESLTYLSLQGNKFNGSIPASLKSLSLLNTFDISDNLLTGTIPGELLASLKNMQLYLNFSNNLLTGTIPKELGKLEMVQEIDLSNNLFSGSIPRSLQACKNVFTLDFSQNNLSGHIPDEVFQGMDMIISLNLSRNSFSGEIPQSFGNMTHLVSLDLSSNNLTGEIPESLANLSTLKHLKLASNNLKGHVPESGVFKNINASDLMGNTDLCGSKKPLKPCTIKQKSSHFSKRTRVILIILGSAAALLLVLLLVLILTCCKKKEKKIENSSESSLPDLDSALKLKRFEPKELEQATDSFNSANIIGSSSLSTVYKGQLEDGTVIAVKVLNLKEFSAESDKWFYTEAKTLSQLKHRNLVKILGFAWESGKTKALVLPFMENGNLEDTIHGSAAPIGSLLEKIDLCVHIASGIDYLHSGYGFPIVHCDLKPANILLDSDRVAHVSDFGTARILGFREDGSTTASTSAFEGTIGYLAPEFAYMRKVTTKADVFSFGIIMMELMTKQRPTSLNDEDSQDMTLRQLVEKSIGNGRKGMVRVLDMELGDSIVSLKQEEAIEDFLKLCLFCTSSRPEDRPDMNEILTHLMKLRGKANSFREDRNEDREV

Binder | binding result (EFR-YFPc / EFR-YFPn) | binding result (FLS2-YFPc / FLS2-YFPn) | binding result (BAK1-HA)
GRP7-YFPn / GRP7-YFPc (other, Two BiFC constructs (N- or C-terminal YFP half) used in both combinations; Results are reported for them together; also called GRP7-YFPn/c; not shown: split-YFP half (YFPn or YFPc) from the pAM-PAT-35S BiFC vector) MASGDVEYRCFVGGLAWATDDRALETAFAQYGDVIDSKIINDRETGRSRGFGFVTFKDEKAMKDAIEGMNGQDLDGRSITVNEAQSRGSGGGGGHRGGGGGGYRSGGGGGYSGGGGSYGGGGGRREGGGGYSGGGGGYSSRGGGGGSYGGGRREGGGGYGGGEGGGYGGSGGGGGW | binds | binds | 
GRP7-eGFP (other, Transiently expressed in N. benthamiana under the 35S promoter; also called 35S::GRP7-eGFP; not shown: C-terminal enhanced green fluorescent protein (eGFP) tag) MASGDVEYRCFVGGLAWATDDRALETAFAQYGDVIDSKIINDRETGRSRGFGFVTFKDEKAMKDAIEGMNGQDLDGRSITVNEAQSRGSGGGGGHRGGGGGGYRSGGGGGYSGGGGSYGGGGGRREGGGGYSGGGGGYSSRGGGGGSYGGGRREGGGGYGGGEGGGYGGSGGGGGW |  |  | no binding
